B1: Subtilisin BPN', P00782 (parent)
chain: MRGKKVWISLLFALALIFTMAFGSTSSAQAAGKSNGEKKYIVGFKQTMSTMSAAKKKDVISEKGGKVQKQFKYVDAASATLNEKAVKELKKDPSVAYVEEDHVAHAYAQSVPYGVSQIKAPALHSQGYTGSNVKVAVIDSGIDSSHPDLKVAGGASMVPSETNPFQDNNSHGTHVAGTVAALNNSIGVLGVAPSASLYAVKVLGADGSGQYSWIINGIEWAIANNMDVINMSLGGPSGSAALKAAVDKAVASGVVVVAAAGNEGTSGSSSTVGYPGKYPSVIAVGAVDSSNQRASFSSVGPELDVMAPGVSIQSTLPGNKYGAYNGTSMASPHVAGAAALILSKHPNWTNTQVRSSLENTTTKLGDSFYYGKGLINVQAAAQ

Variants of: B1
Conditions: Bacillus amyloliquefaciens, pH 8, Thermal, DSC, Tris-HCl 5.0 mM, KCl 50 mM, reversible: yes, structure 1SUP, whole UniProt chain shown; for ddG of mutation (higher = less stable): 58.8 °C

## G276A
  ddG of mutation (higher = less stable): -0.3 kcal/mol
  Tm: 59.6 °C
  change of melting temperature, mutant - wild type (higher = more stable): 1.1 °C

## N325S
  ddG of mutation (higher = less stable): -1.07 kcal/mol
  Tm: 62.5 °C
  change of melting temperature, mutant - wild type (higher = more stable): 4 °C

## M157F
  ddG of mutation (higher = less stable): -0.48 kcal/mol
  Tm: 60.3 °C
  change of melting temperature, mutant - wild type (higher = more stable): 1.8 °C

## Y324K
  ddG of mutation (higher = less stable): -0.72 kcal/mol

## N183D
  ddG of mutation (higher = less stable): -0.45 kcal/mol
  Tm: 60.2 °C
  change of melting temperature, mutant - wild type (higher = more stable): 1.7 °C

## Q313C
  ddG of mutation (higher = less stable): -1.25 kcal/mol
  Tm: 63.2 °C
  change of melting temperature, mutant - wild type (higher = more stable): 4.7 °C

From FireProtDB (doi:10.1021/bi00444a012)
